Molecular target: VPS13C, endogenous in HEK-293 cells [human (endogenous in HEK-293 FT/HEK-293 T)]
Experiment: co-IP (anti-GFP IP, immunoblot quantification)
Conditions: N = 4; parent: 1; read off a plot

| ratio to parent | Substance |
| --- | --- |
| 0.34 | eGFP-Rab10 WT mutant T73A [not stated] / VPS13C, endogenous in HEK-293 cells [human (endogenous in HEK-293 FT/HEK-293 T)] chain 1 T73A |
| 1.3 | eGFP-Rab10 WT mutant T73E [not stated] / VPS13C, endogenous in HEK-293 cells [human (endogenous in HEK-293 FT/HEK-293 T)] chain 1 T73E |
